PMC8755542, “HELQ is a dual-function DSB repair enzyme modulated by RPA and RAD51” (Nature, 2021)
Values belong to the binder of their own block, whether it stands above or below them.

How the values were obtained:
HELQ;RPA-eGFP [1] = molecular target: T1, HELQ;RPA-eGFP (human;human, UniProt Q8TDG4;P27694;P15927;P35244 1-1101;1-616;1-270;1-121, |); test: single-molecule oligo capture; capture on RPA-eGFP-coated lambda ssDNA; EMSA: 25 mM Tris-HCl pH 8.0, 2 mM ATP, 2 mM MgCl2, 1 mM DTT, 50 mM NaCl, 0.1 mg/ml BSA, 25 nM DNA, 10 min 37 C (20 min for RAD51 +/- HELQ); single-molecule at room temperature in similar buffer; settings: protein: recombinant;recombinant; tags: C-terminal Flag; N-terminal MBP removed with PreScission;eGFP; copies: 1;1;1;1; label: Cy3 (5' in oligo list, 3' in capture assay); single strand
HELQ(K365M);RPA-mRFP1 = HELQ(K365M);RPA-mRFP1 (human;human, UniProt Q8TDG4;P27694;P15927;P35244 1-1101;1-616;1-270;1-121, K365M|); test: pull-down; via biotin-dT43 on streptavidin beads; RPA fusion not stated; EMSA: 25 mM Tris-HCl pH 8.0, 2 mM ATP, 2 mM MgCl2, 1 mM DTT, 50 mM NaCl, 0.1 mg/ml BSA, 25 nM DNA, 10 min 37 C (20 min for RAD51 +/- HELQ); single-molecule at room temperature in similar buffer; settings: protein: recombinant;recombinant; tags: C-terminal Flag; N-terminal MBP removed with PreScission;mRFP1; copies: 1;1;1;1; label: Cy3 (5' in oligo list, 3' in capture assay); single strand
HELQ;RPA-mRFP1 = HELQ;RPA-mRFP1 (human;human, UniProt Q8TDG4;P27694;P15927;P35244 1-1101;1-616;1-270;1-121, |); test: pull-down; via biotin-dT43 on streptavidin beads; 82 nM RPA, fusion not stated; EMSA: 25 mM Tris-HCl pH 8.0, 2 mM ATP, 2 mM MgCl2, 1 mM DTT, 50 mM NaCl, 0.1 mg/ml BSA, 25 nM DNA, 10 min 37 C (20 min for RAD51 +/- HELQ); single-molecule at room temperature in similar buffer; settings: protein: recombinant;recombinant; tags: C-terminal Flag; N-terminal MBP removed with PreScission;mRFP1; copies: 1;1;1;1; label: Cy3 (5' in oligo list, 3' in capture assay); single strand
[2] = molecular target: T2, HELQ (wild type, purified recombinant human HELQ) (human, UniProt Q8TDG4 1-1101); test: single-molecule imaging (optical tweezers with confocal microscopy, C-Trap); gapped λ-DNA held between beads at constant force of 50 pN; 25 nM Alx–RAD51 with or without 50 nM HELQ or HELQ(K365M) in 1× HELQ buffer (25 mM Tris-HCl pH 8.0, 2 mM MgCl2, 50 mM NaCl), 2 mM ATP, 0.2 mg/ml BSA, 1 mM DTT; room temperature; kymographs of Alx–RAD51; settings: both partners purified
T2 construct: human HELQ helicase; custom HELQ ORF (GeneArt); Eluted from Flag resin with 3xFlag peptide; no removal of the Flag tag is described; also called HELQ WT; WT HELQ; source: Sf9 insect cells, purified (amylose, PreScission cleavage of MBP, anti-Flag resin); not shown: MBP, N-terminal, cleaved
T2 sequence (looked up): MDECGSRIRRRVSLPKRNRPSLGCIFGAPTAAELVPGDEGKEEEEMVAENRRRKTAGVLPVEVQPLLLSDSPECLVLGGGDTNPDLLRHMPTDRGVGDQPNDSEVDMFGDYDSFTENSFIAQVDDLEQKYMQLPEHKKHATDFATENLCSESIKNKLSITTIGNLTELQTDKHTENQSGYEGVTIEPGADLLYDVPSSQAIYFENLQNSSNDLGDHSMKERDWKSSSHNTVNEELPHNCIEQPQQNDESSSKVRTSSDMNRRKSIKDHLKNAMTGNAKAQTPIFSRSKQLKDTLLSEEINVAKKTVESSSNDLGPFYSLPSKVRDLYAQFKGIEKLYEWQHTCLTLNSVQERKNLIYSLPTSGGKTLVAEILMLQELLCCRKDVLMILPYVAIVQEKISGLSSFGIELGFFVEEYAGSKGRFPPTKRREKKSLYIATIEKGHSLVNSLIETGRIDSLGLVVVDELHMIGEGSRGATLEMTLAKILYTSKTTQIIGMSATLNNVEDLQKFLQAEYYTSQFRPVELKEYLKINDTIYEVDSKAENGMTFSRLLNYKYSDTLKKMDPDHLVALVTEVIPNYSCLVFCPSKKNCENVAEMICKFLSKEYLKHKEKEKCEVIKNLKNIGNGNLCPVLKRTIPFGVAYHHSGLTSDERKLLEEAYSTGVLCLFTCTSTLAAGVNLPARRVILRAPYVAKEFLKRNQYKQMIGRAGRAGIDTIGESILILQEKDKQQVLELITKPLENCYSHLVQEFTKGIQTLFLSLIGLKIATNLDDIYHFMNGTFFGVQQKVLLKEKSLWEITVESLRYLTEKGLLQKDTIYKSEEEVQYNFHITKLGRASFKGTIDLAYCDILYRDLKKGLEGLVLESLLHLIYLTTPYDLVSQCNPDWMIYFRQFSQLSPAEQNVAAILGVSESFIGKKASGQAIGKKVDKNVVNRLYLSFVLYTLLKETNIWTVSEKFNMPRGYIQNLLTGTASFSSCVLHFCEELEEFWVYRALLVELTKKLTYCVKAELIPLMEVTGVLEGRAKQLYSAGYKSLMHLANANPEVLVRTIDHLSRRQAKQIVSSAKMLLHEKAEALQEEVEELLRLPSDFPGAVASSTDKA

HELQ(K365M) [3] = molecular target: T3, HELQ(K365M) (human, UniProt Q8TDG4 1-1101, K365M); test: as above; settings: both partners purified
T3 construct: human HELQ helicase with the helicase-dead mutation K365M, made from pFB-MBP-HELQ-Flag by site-directed mutagenesis; also called helicase-dead HELQ; HELQ KM; source: Sf9 insect cells, purified (same procedure as wild-type HELQ); not shown: MBP, N-terminal, cleaved
T3 sequence (looked up): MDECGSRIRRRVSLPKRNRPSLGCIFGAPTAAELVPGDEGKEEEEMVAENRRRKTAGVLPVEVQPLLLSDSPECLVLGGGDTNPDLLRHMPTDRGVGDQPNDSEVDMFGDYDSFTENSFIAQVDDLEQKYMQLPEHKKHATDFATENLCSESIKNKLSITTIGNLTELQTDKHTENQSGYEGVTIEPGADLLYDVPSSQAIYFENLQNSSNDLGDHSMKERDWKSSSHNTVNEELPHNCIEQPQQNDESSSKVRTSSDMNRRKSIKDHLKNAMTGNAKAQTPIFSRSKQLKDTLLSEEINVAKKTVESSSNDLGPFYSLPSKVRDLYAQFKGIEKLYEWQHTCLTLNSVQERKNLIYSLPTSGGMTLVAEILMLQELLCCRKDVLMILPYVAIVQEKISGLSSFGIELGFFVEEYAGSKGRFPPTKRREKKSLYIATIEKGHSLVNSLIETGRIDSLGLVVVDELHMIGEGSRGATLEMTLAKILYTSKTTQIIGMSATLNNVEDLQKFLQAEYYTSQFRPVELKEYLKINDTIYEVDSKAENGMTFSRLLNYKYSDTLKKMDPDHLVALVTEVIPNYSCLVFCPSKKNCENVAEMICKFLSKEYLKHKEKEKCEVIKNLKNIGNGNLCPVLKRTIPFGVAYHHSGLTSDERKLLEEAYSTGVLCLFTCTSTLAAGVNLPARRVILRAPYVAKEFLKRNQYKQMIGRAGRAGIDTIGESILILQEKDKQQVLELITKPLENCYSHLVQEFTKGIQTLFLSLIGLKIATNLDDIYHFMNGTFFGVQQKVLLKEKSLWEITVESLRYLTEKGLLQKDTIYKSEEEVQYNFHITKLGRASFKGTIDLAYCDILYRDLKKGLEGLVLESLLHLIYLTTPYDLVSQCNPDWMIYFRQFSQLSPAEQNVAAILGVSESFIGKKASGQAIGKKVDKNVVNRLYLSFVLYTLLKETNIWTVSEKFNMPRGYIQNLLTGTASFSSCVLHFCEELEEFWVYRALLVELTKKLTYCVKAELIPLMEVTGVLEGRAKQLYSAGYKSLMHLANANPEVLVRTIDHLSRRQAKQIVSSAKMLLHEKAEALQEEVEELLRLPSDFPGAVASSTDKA

HELQ;RPA-eGFP [4] = molecular target: T1, HELQ;RPA-eGFP; test: single-molecule oligo capture; capture on RPA-eGFP-coated lambda ssDNA; dwell time 134 s; EMSA: 25 mM Tris-HCl pH 8.0, 2 mM ATP, 2 mM MgCl2, 1 mM DTT, 50 mM NaCl, 0.1 mg/ml BSA, 25 nM DNA, 10 min 37 C (20 min for RAD51 +/- HELQ); single-molecule at room temperature in similar buffer; settings: protein: recombinant;recombinant; tags: C-terminal Flag; N-terminal MBP removed with PreScission;eGFP; copies: 1;1;1;1; label: 5' Cy3; single strand
HELQ(K365M);RPA-eGFP = HELQ(K365M);RPA-eGFP (human;human, UniProt Q8TDG4;P27694;P15927;P35244 1-1101;1-616;1-270;1-121, K365M|); test: single-molecule oligo capture; capture on RPA-eGFP-coated lambda ssDNA; dwell time 179 s; EMSA: 25 mM Tris-HCl pH 8.0, 2 mM ATP, 2 mM MgCl2, 1 mM DTT, 50 mM NaCl, 0.1 mg/ml BSA, 25 nM DNA, 10 min 37 C (20 min for RAD51 +/- HELQ); single-molecule at room temperature in similar buffer; settings: protein: recombinant;recombinant; tags: C-terminal Flag; N-terminal MBP removed with PreScission;eGFP; copies: 1;1;1;1; label: 5' Cy3; single strand
HELQ(K365M) [5] = molecular target: T4, HELQ(K365M) (human, UniProt Q8TDG4 1-1101, K365M); test: EMSA; 2 mM ATP, 2 mM Mg2+; EMSA: 25 mM Tris-HCl pH 8.0, 2 mM ATP, 2 mM MgCl2, 1 mM DTT, 50 mM NaCl, 0.1 mg/ml BSA, 25 nM DNA, 10 min 37 C (20 min for RAD51 +/- HELQ); single-molecule at room temperature in similar buffer; settings: protein: recombinant, tags: C-terminal Flag, N-terminal MBP removed with PreScission
T4 sequence: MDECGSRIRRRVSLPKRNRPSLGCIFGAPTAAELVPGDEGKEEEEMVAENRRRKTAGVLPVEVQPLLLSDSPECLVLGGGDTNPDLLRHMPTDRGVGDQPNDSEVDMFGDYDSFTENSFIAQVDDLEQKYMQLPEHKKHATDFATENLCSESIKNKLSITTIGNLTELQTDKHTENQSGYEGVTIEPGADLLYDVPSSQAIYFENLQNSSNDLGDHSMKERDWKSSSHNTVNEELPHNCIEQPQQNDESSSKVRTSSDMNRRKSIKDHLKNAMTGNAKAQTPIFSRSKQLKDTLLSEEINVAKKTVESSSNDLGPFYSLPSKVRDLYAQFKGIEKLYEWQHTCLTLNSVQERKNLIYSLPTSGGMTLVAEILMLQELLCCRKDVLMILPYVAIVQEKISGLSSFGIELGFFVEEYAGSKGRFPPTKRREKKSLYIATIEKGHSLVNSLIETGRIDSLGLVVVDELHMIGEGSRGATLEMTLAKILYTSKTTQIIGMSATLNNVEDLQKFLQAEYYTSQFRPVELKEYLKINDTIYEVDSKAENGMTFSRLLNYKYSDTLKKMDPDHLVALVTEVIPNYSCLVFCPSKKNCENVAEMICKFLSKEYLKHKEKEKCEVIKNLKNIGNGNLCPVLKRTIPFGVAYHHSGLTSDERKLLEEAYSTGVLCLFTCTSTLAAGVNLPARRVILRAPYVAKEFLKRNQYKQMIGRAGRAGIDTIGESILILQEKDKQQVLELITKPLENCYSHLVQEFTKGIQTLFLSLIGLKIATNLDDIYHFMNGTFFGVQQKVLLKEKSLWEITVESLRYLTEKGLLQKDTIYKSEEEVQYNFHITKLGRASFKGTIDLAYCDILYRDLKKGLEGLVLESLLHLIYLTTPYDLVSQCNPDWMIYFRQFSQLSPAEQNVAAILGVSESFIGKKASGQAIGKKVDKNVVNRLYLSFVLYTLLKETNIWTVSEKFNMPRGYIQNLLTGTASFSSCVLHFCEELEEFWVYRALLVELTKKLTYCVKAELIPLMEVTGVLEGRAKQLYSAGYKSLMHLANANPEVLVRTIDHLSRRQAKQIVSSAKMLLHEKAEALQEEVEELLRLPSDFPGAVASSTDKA

T1 sequence (P27694 whole entry, chain 2 of 3, the tested form may be a part): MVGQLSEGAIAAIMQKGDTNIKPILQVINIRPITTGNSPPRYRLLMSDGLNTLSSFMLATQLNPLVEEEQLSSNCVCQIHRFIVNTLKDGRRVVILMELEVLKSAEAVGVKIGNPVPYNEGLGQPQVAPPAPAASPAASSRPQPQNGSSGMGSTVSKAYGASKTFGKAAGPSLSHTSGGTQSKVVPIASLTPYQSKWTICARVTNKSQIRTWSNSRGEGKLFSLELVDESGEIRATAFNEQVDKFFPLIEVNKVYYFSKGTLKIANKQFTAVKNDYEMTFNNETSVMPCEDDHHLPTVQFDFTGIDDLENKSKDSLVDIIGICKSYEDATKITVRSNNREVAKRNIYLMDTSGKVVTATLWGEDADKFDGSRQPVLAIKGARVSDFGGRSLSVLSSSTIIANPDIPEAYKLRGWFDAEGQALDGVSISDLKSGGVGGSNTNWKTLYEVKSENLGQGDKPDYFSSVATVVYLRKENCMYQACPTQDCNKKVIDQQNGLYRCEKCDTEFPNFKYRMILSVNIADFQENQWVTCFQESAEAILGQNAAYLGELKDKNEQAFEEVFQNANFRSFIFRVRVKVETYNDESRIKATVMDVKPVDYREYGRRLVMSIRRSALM
T1 sequence (P15927 whole entry, chain 3 of 3, the tested form may be a part): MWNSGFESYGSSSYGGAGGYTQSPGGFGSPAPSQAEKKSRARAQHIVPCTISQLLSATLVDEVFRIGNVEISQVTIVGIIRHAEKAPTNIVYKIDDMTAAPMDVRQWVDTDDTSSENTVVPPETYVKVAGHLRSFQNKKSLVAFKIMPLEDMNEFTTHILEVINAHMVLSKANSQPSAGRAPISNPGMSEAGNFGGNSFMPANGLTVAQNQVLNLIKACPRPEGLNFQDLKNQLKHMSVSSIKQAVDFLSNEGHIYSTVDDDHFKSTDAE
T1 sequence (P35244 whole entry, chain 4 of 3, the tested form may be a part): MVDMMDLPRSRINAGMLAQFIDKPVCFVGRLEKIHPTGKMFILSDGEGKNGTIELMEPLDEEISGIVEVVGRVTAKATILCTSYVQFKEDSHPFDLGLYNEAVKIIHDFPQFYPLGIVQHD
Chain of HELQ(K365M);RPA-mRFP1 (P27694 whole entry, chain 2 of 3, the tested form may be a part): as the sequence (P27694 whole entry, chain 2 of 3, the tested form may be a part) above
Chain of HELQ(K365M);RPA-mRFP1 (P15927 whole entry, chain 3 of 3, the tested form may be a part): as the sequence (P15927 whole entry, chain 3 of 3, the tested form may be a part) above
Chain of HELQ(K365M);RPA-mRFP1 (P35244 whole entry, chain 4 of 3, the tested form may be a part): as the sequence (P35244 whole entry, chain 4 of 3, the tested form may be a part) above
Chain of HELQ;RPA-mRFP1 (P27694 whole entry, chain 2 of 3, the tested form may be a part): as the sequence (P27694 whole entry, chain 2 of 3, the tested form may be a part) above
Chain of HELQ;RPA-mRFP1 (P15927 whole entry, chain 3 of 3, the tested form may be a part): as the sequence (P15927 whole entry, chain 3 of 3, the tested form may be a part) above
Chain of HELQ;RPA-mRFP1 (P35244 whole entry, chain 4 of 3, the tested form may be a part): as the sequence (P35244 whole entry, chain 4 of 3, the tested form may be a part) above
Chain of HELQ(K365M);RPA-eGFP (P27694 whole entry, chain 2 of 3): as the sequence (P27694 whole entry, chain 2 of 3, the tested form may be a part) above
Chain of HELQ(K365M);RPA-eGFP (P15927 whole entry, chain 3 of 3): as the sequence (P15927 whole entry, chain 3 of 3, the tested form may be a part) above
Chain of HELQ(K365M);RPA-eGFP (P35244 whole entry, chain 4 of 3): as the sequence (P35244 whole entry, chain 4 of 3, the tested form may be a part) above

B1: dT79 (ssDNA)
DNA: TTTTTTTTTTTTTTTTTTTTTTTTTTTTTTTTTTTTTTTTTTTTTTTTTTTTTTTTTTTTTTTTTTTTTTTTTTTTTTT
binding result (HELQ;RPA-eGFP [1]): binds | binding result (HELQ(K365M);RPA-mRFP1): binds | binding result (HELQ;RPA-mRFP1): binds

binding result [2]: binds | binding result (HELQ(K365M) [3]): binds
B2: Alx–RAD51 (RAD51(C319S) labelled with Alexa Fluor 488 C5 maleimide) (natural protein, human, UniProt Q06609 1-339, looked up)
chain: MAMQMQLEANADTSVEEESFGPQPISRLEQCGINANDVKKLEEAGFHTVEAVAYAPKKELINIKGISEAKADKILAEAAKLVPMGFTTATEFHQRRSEIIQITTGSKELDKLLQGGIETGSITEMFGEFRTGKTQICHTLAVTCQLPIDRGGGEGKAMYIDTEGTFRPERLLAVAERYGLSGSDVLDNVAYARAFNTDHQTQLLYQASAMMVESRYALLIVDSATALYRTDYSGRGELSARQMHLARFLRMLLRLADEFGVAVVITNQVVAQVDGAAMFAADPKKPIGGNIIAHASTTRLYLRKGRGETRICKIYDSPSLPEAEAMFAINADGVGDAKD
modifications: Alexa Fluor 488 C5 maleimide label (1:1 labelling stoichiometry; labelled residue not given)
notes: human RAD51 recombinase with the mutation C319S; also called RAD51(A488); source: E. coli, purified as WT RAD51, then labelled and separated from free dye (Zeba column)

B3: lambda4 80-mer (ssDNA)
DNA: CCTGAACGACCAGGCGTCTTCGTTCATCTATCGGATCGCCACACTCACAACAATGAGTGGCAGATATAGCCTGGTGGTTC
binding result (HELQ;RPA-eGFP [4]): binds | binding result (HELQ(K365M);RPA-eGFP): binds

Binder: AGCTACCATGCCTGCACGAATTAAGCAATTCGTAATCATGGTCATAGCT (ssDNA) [ssDNA (oligo 1)]
binding result (HELQ(K365M) [5]; label: 5' FITC, single strand 49 nt): binds

B4: dsDNA (oligo 1 + oligo 2) (dsDNA)
DNA 1: AGCTACCATGCCTGCACGAATTAAGCAATTCGTAATCATGGTCATAGCT
DNA 2: AGCTATGACCATGATTACGAATTGCTTAATTCGTGCAGGCATGGTAGCT
binding result (HELQ(K365M) [5]; label: 5' FITC on strand 1, blunt 49 bp): binds
